# Reference: article PMC4661386
# B1: Recombinant human heavy chain 1 (rHC1) of inter-alpha-inhibitor, wild type (natural protein)
# chain: SKSSEKRQAVDTAVDGVFIRSLKVNCKVTSRFAHYVVTSQVVNTANEAREVAFDLEIPKTAFISDFAVTADGNAFIGDIKDKVTAWKQYRKAAISGENAGLVRASGRTMEQFTIHLTVNPQSKVTFQLTYEEVLKRNHMQYEIVIKVKPKQLVHHFEIDVDIFEPQGISKLDAQASFLPKELAAQTIKKSFSGKKGHVLFRPTVSQQQSCPTCSTSLLNGHFKVTYDVSRDKICDLLVANNHFAHFFAPQNLTNMNKNVVFVIDISGSMRGQKVKQTKEALLKILGDMQPGDYFDLVLFGTRVQSWKGSLVQASEANLQAAQDFVRGFSLDEATNLNGGLLRGIEILNQVQESLPELSNHASILIMLTDGDPTEGVTDRSQILKNVRNAIRGRFPLYNLGFGHNVDFNFLEVMSMENNGRAQRIYEDHDATQQLQGFYSQVAKPLLVDVDLQYPQDAVLALTQNHHKQYYEGSEIVVAGRIADNKQSSFKADVQAHGEGQEFSITCLVDEEEMKKLLRERGHMLENHVERLWAYLTIQELLAKRMKVDREERANLSSQALQMSLDYGFVTPLTSMSIRGMADQDGLKPTIDKPSEDSPPLEMLGPRRTFVLSALQPSPTHSSSNTQRLPDRVTGVDTD
# Target: CUB_C (CUB module and C-terminal peptide from human TSG-6), wild type (human) (UniProt P98066)
# Assay: SPR; CUB_C (WT or E183S) amine-coupled to a CM5 chip (~1000 RU); rHC1 (WT or D298A) injected at 30 ul/min in 20 mM HEPES, 150 mM NaCl, 0.05% Tween 20, pH 7.4 (HBS-T), no EDTA (as purified CUB_C contains Ca2+); multicycle kinetics, 1:1 Langmuir model
binder,measurement,value
B1,Kd,2.1 nM
